Article PMC7124958
pKd: −log10 of the molar value. Values belong to the substance of their own block, whether it stands above or below them.

Tests used:
Experiment in all cases: MST
[1] = biological target: R663H human β-cardiac 25-hep HMM (UniProt P12883)
[2] = biological target: WT human β-cardiac 25-hep HMM (UniProt P12883)
[3] = biological target: C0-C7 fragment of human cardiac myosin binding protein-C (MyBP-C) (human)
[4] = biological target: R663H human β-cardiac short S1 (sS1) (human) (UniProt P12883)
[5] = biological target: WT human β-cardiac short S1 (sS1) (human) (UniProt P12883)

pKd [1]: 5.96 | pKd [2]: 5.82
Substance: C0-C7 fragment of human cardiac myosin binding protein-C (MyBP-C) (domain or fragment)

pKd [3]: 5.96
Substance: WT human β-cardiac 25-hep HMM (from UniProt P12883 1-1016; P08590 1-195) (complex)

pKd [4]: 4.24 | pKd [5]: 4.21
Substance: proximal S2 of human β-cardiac myosin (from UniProt P12883 1-1935) (domain or fragment)
